Laboratory results as given in patent US20240091321A1 (AMICUS THERAPEUTICS, published 2024).

B1: Natural hTTP1 (enzyme)
enzyme: SYSPEPDQRRTLPPGWVSLGRADPEEELSLTFALRQQNVERLSELVQAVSDPSSPQYGKYLTLENVADLVRPSPLTLHTVQKWLLAAGAQKCHSVITQDFLTCWLSIRQAELLLPGAEFHHYVGGPTETHVVRSPHPYQLPQALAPHVDFVGGLHRFPPTSSLRQRPEPQVTGTVGLHLGVTPSVIRKRYNLTSQDVGSGTSNNSQACAQFLEQYFHDSDLAQFMRLFGGNFAHQASVARVVGQQGRGRAGIEASLDVQYLMSAGANISTWVYSSPGRHEGQEPFLQWLMLLSNESALPHVHTVSYGDDEDSLSSAYIQRVNTELMKAAARGLTLLFASGDSGAGCWSVSGRHQFRPTFPASSPYVTTVGGTSFQEPFLITNEIVDYISGGGFSNVFPRPSYQEEAVTKFLSSSPHLPPSSYFNASGRAYPDVAALSDGYWVVSNRVPIPWVSGTSASTPVFGGILSLINEHRILSGRPPLGFLNPRLYQQHGAGLFDVTRGCHESCLDEEVEGQGFCSGPGWDPVTGWGTPNFPALLKTLLNP
notes: also called WT TPP1; TPP1 wildtype
B2: PPT1-29 (BiP2aa-vIGF2-PPT1) (enzyme)
chain: MKLSLVAAMLLLLWVALLLLSAARAAASRTLCGGELVDTLQFVCGDRGFLFSRPASRVSRRSRGIVEECCFRSCDLALLETYCATPARSEGGGGSGGGGSRPRAVPTQDPPAPLPLVIWHGMGDSCCNPLSMGAIKKMVEKKIPGIYVLSLEIGKTLMEDVENSFFLNVNSQVTTVCQALAKDPKLQQGYNAMGFSQGGQFLRAVAQRCPSPPMINLISVGGQHQGVFGLPRCPGESSHICDFIRKTLNAGAYSKVVQERLVQAEYWHDPIKEDVYRNHSIFLADINQERGINESYKKNLMALKKFVMVKFLNDSIVDPVDSEWFGFYRSGQAKETIPLQETSLYTQDRLGLKEMDNAGQLVFLATEGDHLQLSEEWFYAHIIPFLG
notes: Whole entry; it includes the modified BiP signal peptide
B3: PPT1-33 (wt-PPT1-vIGF2-8Q) (enzyme)
chain: DPPAPLPLVIWHGMGDSCCNPLSMGAIKKMVEKKIPGIYVLSLEIGKTLMEDVENSFFLNVNSQVTTVCQALAKDPKLQQGYNAMGFSQGGQFLRAVAQRCPSPPMINLISVGGQHQGVFGLPRCPGESSHICDFIRKTLNAGAYSKVVQERLVQAEYWHDPIKEDVYRNHSIFLADINQERGINESYKKNLMALKKFVMVKFLNDSIVDPVDSEWFGFYRSGQAKETIPLQETSLYTQDRLGLKEMDNAGQLVFLATEGDHLQLSEEWFYAHIIPFLGRPRAVPTQGGSGSGSTSSSRTLCGGELVDTLQFVCGDRGFLFSRPASRVSRRSRGIVEECCFRECDLALLETYCATPARSE
notes: Whole entry; it includes the native PPT1 signal peptide
B4: WT NAGLU (enzyme)
enzyme: DEAREAAAVRALVARLLGPGPAADFSVSVERALAAKPGLDTYSLGGGGAARVRVRGSTGVAAAAGLHRYLRDFCGCHVAWSGSQLRLPRPLPAVPGELTEATPNRYRYYQNVCTQSYSFVWWDWARWEREIDWMALNGINLALAWSGQEAIWQRVYLALGLTQAEINEFFTGPAFLAWGRMGNLHTWDGPLPPSWHIKQLYLQHRVLDQMRSFGMTPVLPAFAGHVPEAVTRVFPQVNVTKMGSWGHFNCSYSCSFLLAPEDPIFPIIGSLFLRELIKEFGTDHIYGADTFNEMQPPSSEPSYLAAATTAVYEAMTAVDTEAVWLLQGWLFQHQPQFWGPAQIRAVLGAVPRGRLLVLDLFAESQPVYTRTASFQGQPFIWCMLHNFGGNHGLFGALEAVNGGPEAARLFPNSTMVGTGMAPEGISQNEVVYSLMAELGWRKDPVPDLAAWVTSFAARRYGVSHPDAGAAWRLLLRSVYNCSGEACRGHNRSPLVRRPSLQMNTSIWYNRSDVFEAWRLLLTSAPSLATSPAFRYDLLDLTRQAVQELVSLYYEEARSAYLSKELASLLRAGGVLAYELLPALDEVLASDSRFLLGSWLEQARAAAVSEAEADFYEQNSRYQLTLWGPEGNILDYANKQLAGLVANYYTPRWRLFLEALVDSVAQGIPFQQHQFDKNVFQLEQAFVLSKQRYPSQPRGDTVDLAKKIFLKYYPRWVAGSW
notes: also called untagged NAGLU
B5: PPT1-101 (enzyme)
fusion protein: MKLSLVAAMLLLLWVALLLLSAARAAASRTLCGGELVDTLQFVCGDRGFLFSRGGGGSRGILEECCFRDCDLALLETYCATPARSEGGGGSGGGGSRPRAVPTQDPPAPLPLVIWHGMGDSCCNPLSMGAIKKMVEKKIPGIYVLSLEIGKTLMEDVENSFFLNVNSQVTTVCQALAKDPKLQQGYNAMGFSQGGQFLRAVAQRCPSPPMINLISVGGQHQGVFGLPRCPGESSHICDFIRKTLNAGAYSKVVQERLVQAEYWHDPIKEDVYRNHSIFLADINQERGINESYKKNLMALKKFVMVKFLNDSIVDPVDSEWFGFYRSGQAKETIPLQETSLYTQDRLGLKEMDNAGQLVFLATEGDHLQLSEEWFYAHIIPFLG
B6: PPT1-104 (enzyme)
fusion protein: DPPAPLPLVIWHGMGDSCCNPLSMGAIKKMVEKKIPGIYVLSLEIGKTLMEDVENSFFLNVNSQVTTVCQALAKDPKLQQGYNAMGFSQGGQFLRAVAQRCPSPPMINLISVGGQHQGVFGLPRCPGESSHICDFIRKTLNAGAYSKVVQERLVQAEYWHDPIKEDVYRNHSIFLADINQERGINESYKKNLMALKKFVMVKFLNDSIVDPVDSEWFGFYRSGQAKETIPLQETSLYTQDRLGLKEMDNAGQLVFLATEGDHLQLSEEWFYAHIIPFLGRPRAVPTQGGSGSGSTSSSRTLCGGELVDTLQFVCGDRGFLFSRGGGGSRGILEECCFRECDLALLETYCATPARSE
B7: PPT1-32 (wt-PPT1-vIGF2-32) (enzyme)
chain: B6 fusion protein
notes: as for B3

Legend:
CI-MPR receptor [1] = biological target: T1, CI-MPR receptor; test: CI-MPR-coated plate binding assay, conditioned media of HEK 293 cells, bound TPP1 activity
T1 construct: also called IGF2/CI-MPR; IGF2/Mannose-6-phosphate receptor
Experimental: (§1) In the binding assay, a plate was first coated with CI-MPR. Next, a sample containing the enzyme of interest was incubated on the plate. The plate was washed so that only substances bound to CI-MPR remain on the plate. The amount of the enzyme of interest bound to the plate was determined by enzyme assay or by mass spec. The binding assay was performed at a range of concentrations of the enzyme of interest in order to obtain a binding curve.

CI-MPR receptor [2] = biological target: T1, CI-MPR receptor; test: CI-MPR plate-binding assay in presence of M6P, bound PPT1 by activity assay
Experimental: as §1
CI-MPR plate-binding assay performed as previously described, then amount bound was determined by PPT1 activity assay.

CI-MPR receptor [3] = biological target: T1, CI-MPR receptor; test: CIMPR plate binding assay, bound NAGLU activity (4MU released)
CI-MPR receptor [4] = biological target: T1, CI-MPR receptor; test: CIMPR binding assay, PPT1 conditioned media, dilution starting at 50 nM, bound PPT1 activity; the table prints no units, units of the axes
CI-MPR receptor [5] = biological target: T1, CI-MPR receptor; test: CIMPR binding assay, PPT1 conditioned media, curves starting at 25 nM, bound PPT1 activity; the table prints no units, units of the axes

Binder	Bmax (CI-MPR receptor [2])	Relative Kd (CI-MPR receptor [2])	further results
B1			EC50 (read off the curve) (CI-MPR receptor [1]): ~0.4 nM
B2	8.98	0.107	
B3	9.19	0.143	
B4			Kd (CI-MPR receptor [3]): 325 nM
B5			Kd (CI-MPR receptor [4]): 4.12 nM; Kd (CI-MPR receptor [5]): 4.57 nM
B6			Kd (CI-MPR receptor [4]): 3.41 nM; Kd (CI-MPR receptor [5]): 3.87 nM
B7	6.05	0.121	
